This assay deals with T1, His-DUB3 (UniProt Q6R6M4 1-530).
T1 construct: deubiquitinase DUB3 (USP17L2) cloned into pET30a; also called USP17L2; source: E. coli BL21, purified
T1 sequence (looked up): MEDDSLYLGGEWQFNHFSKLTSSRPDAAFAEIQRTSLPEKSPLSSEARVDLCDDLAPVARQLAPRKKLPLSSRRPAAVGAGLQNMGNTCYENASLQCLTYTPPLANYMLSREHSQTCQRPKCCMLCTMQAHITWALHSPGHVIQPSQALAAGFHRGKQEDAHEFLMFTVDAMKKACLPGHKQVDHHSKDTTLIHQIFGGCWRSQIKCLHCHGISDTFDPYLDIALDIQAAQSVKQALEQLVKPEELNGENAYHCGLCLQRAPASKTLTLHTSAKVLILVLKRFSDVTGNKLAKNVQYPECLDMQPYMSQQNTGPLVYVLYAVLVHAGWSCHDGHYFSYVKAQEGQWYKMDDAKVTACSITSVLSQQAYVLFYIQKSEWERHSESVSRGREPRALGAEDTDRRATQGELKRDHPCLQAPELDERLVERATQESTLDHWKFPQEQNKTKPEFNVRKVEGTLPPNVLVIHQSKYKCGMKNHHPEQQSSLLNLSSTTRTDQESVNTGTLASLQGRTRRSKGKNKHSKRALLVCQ
Put plainly: pull-down; GST or GST-fusion protein on Pierce Glutathione agarose, incubated with purified His-tagged protein at 4 °C for 2 h; four washes; immunoblotting. The note with it: both partners purified.

B1: GST-CK2α (Casein kinase II alpha, catalytic subunit) (enzyme, UniProt P68400 1-391, looked up)
chain: MSGPVPSRARVYTDVNTHRPREYWDYESHVVEWGNQDDYQLVRKLGRGKYSEVFEAINITNNEKVVVKILKPVKKKKIKREIKILENLRGGPNIITLADIVKDPVSRTPALVFEHVNNTDFKQLYQTLTDYDIRFYMYEILKALDYCHSMGIMHRDVKPHNVMIDHEHRKLRLIDWGLAEFYHPGQEYNVRVASRYFKGPELLVDYQMYDYSLDMWSLGCMLASMIFRKEPFFHGHDNYDQLVRIAKVLGTEDLYDYIDKYNIELDPRFNDILGRHSRKRWERFVHSENQHLVSPEALDFLDKLLRYDHQSRLTAREAMEHPYFYTVVKDQARMGSSSMPGGSTPVSSANMMSGISSVPTPSPLGPLAGSPVIAAANPLGMPVPAAAGAQQ
notes: Casein kinase II alpha (CK2α), catalytic subunit of CK2, cloned into pGEX4T-1; source: E. coli BL21, IPTG induced, pulled down on Pierce Glutathione agarose
Consider B1, for which the binding result is reported as “binds”.

The record behind these values is publication PMC11743126, “CK2α-mediated phosphorylation of DUB3 promotes YAP1 stability and oncogenic functions” (Cell Death & Disease, 2025).
